Results: IntAct's records for PubMed 22045334

B1: Mothers against decapentaplegic homolog 3 (Homo sapiens), P84022 (parent)
chain: MSSILPFTPPIVKRLLGWKKGEQNGQEEKWCEKAVKSLVKKLKKTGQLDELEKAITTQNVNTKCITIPRSLDGRLQVSHRKGLPHVIYCRLWRWPDLHSHHELRAMELCEFAFNMKKDEVCVNPYHYQRVETPVLPPVLVPRHTEIPAEFPPLDDYSHSIPENTNFPAGIEPQSNIPETPPPGYLSEDGETSDHQMNHSMDAGSPNLSPNPMSPAHNNLDLQPVTYCEPAFWCSISYYELNQRVGETFHASQPSMTVDGFTDPSNSERFCLGLLSNVNRNAAVELTRRHIGRGVRLYYIGGEVFAECLSDSAIFVQSPNCNQRYGWHPATVCKIPPGCNLKIFNNQEFAALLAQSVNQGFEAVYQLTRMCTIRMSFVKGWGAEYRRQTVTSTPCWIELHLNGPLQWLDKVLTQMGSPSIRCSSVS

Variants of: B1
Conditions: with ubc_human UBC

effect of a mutation on the interaction	Variant
decreasing interaction	K341R
decreasing interaction	K409R
decreasing interaction	K378R
decreasing interaction	K333R

Variants of: B1
Conditions: with smad4_human SMAD4, Q13485

effect of a mutation on the interaction	Variant
decreasing interaction	K333R;K378R;K409R
decreasing interaction	K333R;K341R;K378R;K409R

Variants of: B1
Conditions: with smuf2_human SMURF2, Q9HAU4

effect of a mutation on the interaction	Variant
disrupting interaction	T179V
disrupting interaction	T179V;S204A;S208A;S213A
